B1: His-Kif18A^FL-GFP (natural protein, human, UniProt Q8NI77 1-898, looked up)
chain: MSVTEEDLCHHMKVVVRVRPENTKEKAAGFHKVVHVVDKHILVFDPKQEEVSFFHGKKTTNQNVIKKQNKDLKFVFDAVFDETSTQSEVFEHTTKPILRSFLNGYNCTVLAYGATGAGKTHTMLGSADEPGVMYLTMLHLYKCMDEIKEEKICSTAVSYLEVYNEQIRDLLVNSGPLAVREDTQKGVVVHGLTLHQPKSSEEILHLLDNGNKNRTQHPTDMNATSSRSHAVFQIYLRQQDKTASINQNVRIAKMSLIDLAGSERASTSGAKGTRFVEGTNINRSLLALGNVINALADSKRKNQHIPYRNSKLTRLLKDSLGGNCQTIMIAAVSPSSVFYDDTYNTLKYANRAKDIKSSLKSNVLNVNNHITQYVKICNEQKAEILLLKEKLKAYEEQKAFTNENDQAKLMISNPQEKEIERFQEILNCLFQNREEIRQEYLKLEMLLKENELKSFYQQQCHKQIEMMCSEDKVEKATGKRDHRLAMLKTRRSYLEKRREEELKQFDENTNWLHRVEKEMGLLSQNGHIPKELKKDLHCHHLHLQNKDLKAQIRHMMDLACLQEQQHRQTEAVLNALLPTLRKQYCTLKEAGLSNAAFESDFKEIEHLVERKKVVVWADQTAEQPKQNDLPGISVLMTFPQLGPVQPIPCCSSSGGTNLVKIPTEKRTRRKLMPSPLKGQHTLKSPPSQSVQLNDSLSKELQPIVYTPEDCRKAFQNPSTVTLMKPSSFTTSFQAISSNINSDNCLKMLCEVAIPHNRRKECGQEDLDSTFTICEDIKSSKCKLPEQESLPNDNKDILQRLDPSSFSTKHSMPVPSMVPSYMAMTTAAKRKRKLTSSTSNSSLTADVNSGFAKRVRQDNSSEKHLQENKPTMEHKRNICKINPSMVRKFGRNISKGNLR
notes: also called full-length Kif18A^FL-GFP; not shown: His6, N-terminal, kept; GFP, C-terminal, kept
B2: His-Kif18A^1-777-GFP (domain or fragment, human, UniProt Q8NI77 1-777, looked up)
chain: MSVTEEDLCHHMKVVVRVRPENTKEKAAGFHKVVHVVDKHILVFDPKQEEVSFFHGKKTTNQNVIKKQNKDLKFVFDAVFDETSTQSEVFEHTTKPILRSFLNGYNCTVLAYGATGAGKTHTMLGSADEPGVMYLTMLHLYKCMDEIKEEKICSTAVSYLEVYNEQIRDLLVNSGPLAVREDTQKGVVVHGLTLHQPKSSEEILHLLDNGNKNRTQHPTDMNATSSRSHAVFQIYLRQQDKTASINQNVRIAKMSLIDLAGSERASTSGAKGTRFVEGTNINRSLLALGNVINALADSKRKNQHIPYRNSKLTRLLKDSLGGNCQTIMIAAVSPSSVFYDDTYNTLKYANRAKDIKSSLKSNVLNVNNHITQYVKICNEQKAEILLLKEKLKAYEEQKAFTNENDQAKLMISNPQEKEIERFQEILNCLFQNREEIRQEYLKLEMLLKENELKSFYQQQCHKQIEMMCSEDKVEKATGKRDHRLAMLKTRRSYLEKRREEELKQFDENTNWLHRVEKEMGLLSQNGHIPKELKKDLHCHHLHLQNKDLKAQIRHMMDLACLQEQQHRQTEAVLNALLPTLRKQYCTLKEAGLSNAAFESDFKEIEHLVERKKVVVWADQTAEQPKQNDLPGISVLMTFPQLGPVQPIPCCSSSGGTNLVKIPTEKRTRRKLMPSPLKGQHTLKSPPSQSVQLNDSLSKELQPIVYTPEDCRKAFQNPSTVTLMKPSSFTTSFQAISSNINSDNCLKMLCEVAIPHNRRKECGQEDLDSTFTICEDIK
notes: not shown: His6, N-terminal, kept; GFP, C-terminal, kept

Molecular target: the molecule itself
Experiment: photobleaching step counting (TIRF microscopy, streaming mode); single GFP-tagged motors moving on immobilised microtubules, ATP reduced to 15 µM, 100 ms exposure for 1200 frames; only one and two step bleaching events seen

Protein	stoichiometry N
B1	2
B2	2

Source: PMC3213134, “A Non-Motor Microtubule Binding Site Is Essential for the High Processivity and Mitotic Function of Kinesin-8 Kif18A” (PLoS ONE, 2011)
